Results reported in article PMC10381965.

Target: CENP-ΔQU complex (CENP-Q^1–294 and CENP-U^30–266) (S. cerevisiae) (UniProt P53298)
Assay: ITC; CENP-A^END peptides (0.87 to 2.18 mM) titrated into CENP-QU (66 to 180 μM) in the cell; 20°C; 20 mM Hepes pH 7.5, 100 mM NaCl, 1 mM TCEP; single-site binding model; triplicate

Row | Binder | Kd | fold reduction of affinity against the unchanged CENP-A^END peptide
1 | Ac-AGDQQSINDRALSLLQRTRATKNW-NH2 [CENP-A^END-2 peptide] | 1000 nM | –
2 | Ac-AGDQQSINDAALSLLQRTRATKNW-NH2 [CENP-A^END-2-R37A peptide] | – | 15 fold
3 | Ac-AGDQQSINDRALSLLQRTRATKNLFPRREERRRW-NH2 [CENP-A^END-3 peptide] | 720 nM | –
4 | Ac-DASINDRALSLLQRTRATDAW-NH2 [CENP-A^END-1 peptide] | 11500 nM | –
